# Source: patent US20210130436A1
# Molecular target: PD-1 (PDCD1) (Homo sapiens (Human)) (UniProt Q15116)
# Test: cell-based or functional assay
# PD-1 (PDCD1) (Homo sapiens (Human)), sequence (Q15116 21-288): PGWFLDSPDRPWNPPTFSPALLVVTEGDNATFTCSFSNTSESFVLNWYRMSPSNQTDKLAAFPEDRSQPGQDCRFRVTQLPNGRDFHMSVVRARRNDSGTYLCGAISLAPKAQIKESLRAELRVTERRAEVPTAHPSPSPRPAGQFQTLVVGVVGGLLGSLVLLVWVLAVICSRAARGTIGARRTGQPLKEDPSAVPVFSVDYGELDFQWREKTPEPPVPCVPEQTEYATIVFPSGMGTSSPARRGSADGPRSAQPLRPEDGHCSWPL
row,IFN gamma levels pg/mL (MLR),Binder
1,1820 pg/mL,"PD-L2 H15Q IgV-Fc (Fc fusion, not shown: a dimerising Fc or GST) LFTVTVPKELYIIEQGSNVTLECNFDTGSHVNLGAITASLQKVENDTSPHRERATLLEEQLPLGKASFHIPQVQVRDEGQYQCIIIYGVAWDYKYLTLKVKA"
2,868 pg/mL,"PD-L2 I13V/S67L/V89D IgV-Fc (Fc fusion, not shown: a dimerising Fc or GST) LFTVTVPKELYIVEHGSNVTLECNFDTGSHVNLGAITASLQKVENDTSPHRERATLLEEQLPLGKALFHIPQVQVRDEGQYQCIIIYGDAWDYKYLTLKVKA"
3,1700 pg/mL,"PD-L2 I13V/H15Q/T47A/Q82R IgV-Fc (Fc fusion, not shown: a dimerising Fc or GST) LFTVTVPKELYIVEQGSNVTLECNFDTGSHVNLGAITASLQKVENDASPHRERATLLEEQLPLGKASFHIPQVQVRDEGQYRCIIIYGVAWDYKYLTLKVKA"
4,1560 pg/mL,"PD-L2 E44D/V89D/W91R IgV-Fc (Fc fusion, not shown: a dimerising Fc or GST) LFTVTVPKELYIIEHGSNVTLECNFDTGSHVNLGAITASLQKVDNDTSPHRERATLLEEQLPLGKASFHIPQVQVRDEGQYQCIIIYGDARDYKYLTLKVKA"
5,1120 pg/mL,"PD-L2 I13V/H15Q/V89D IgV-Fc (Fc fusion, not shown: a dimerising Fc or GST) LFTVTVPKELYIVEQGSNVTLECNFDTGSHVNLGAITASLQKVENDTSPHRERATLLEEQLPLGKASFHIPQVQVRDEGQYQCIIIYGDAWDYKYLTLKVKA"
6,1600 pg/mL,"PD-L2 I13V/H15Q/Q82R/V89D IgV-Fc (Fc fusion, not shown: a dimerising Fc or GST) LFTVTVPKELYIVEQGSNVTLECNFDTGSHVNLGAITASLQKVENDTSPHRERATLLEEQLPLGKASFHIPQVQVRDEGQYRCIIIYGDAWDYKYLTLKVKA"
7,1080 pg/mL,"PD-L2 I13V/H15Q/T47A/H69L/R76G/V89D IgV-Fc (Fc fusion, not shown: a dimerising Fc or GST) LFTVTVPKELYIVEQGSNVTLECNFDTGSHVNLGAITASLQKVENDASPHRERATLLEEQLPLGKASFLIPQVQVGDEGQYQCIIIYGDAWDYKYLTLKVKA"
8,1260 pg/mL,"PD-L2 I13V/H15Q/S39I/E44D/S67L IgV-Fc (Fc fusion, not shown: a dimerising Fc or GST) LFTVTVPKELYIVEQGSNVTLECNFDTGSHVNLGAITAILQKVDNDTSPHRERATLLEEQLPLGKALFHIPQVQVRDEGQYQCIIIYGVAWDYKYLTLKVKA"
9,1250 pg/mL,"PD-L2 I13V/H15Q/T47A/R76G/V89D IgV-Fc (Fc fusion, not shown: a dimerising Fc or GST) LFTVTVPKELYIVEQGSNVTLECNFDTGSHVNLGAITASLQKVENDASPHRERATLLEEQLPLGKASFHIPQVQVGDEGQYQCIIIYGDAWDYKYLTLKVKA"
10,1090 pg/mL,"PD-L2 H15Q/N24S/T47A/Q72H/R76G/V89D IgV-Fc (Fc fusion, not shown: a dimerising Fc or GST) LFTVTVPKELYIIEQGSNVTLECSFDTGSHVNLGAITASLQKVENDASPHRERATLLEEQLPLGKASFHIPHVQVGDEGQYQCIIIYGDAWDYKYLTLKVKA"
11,1070 pg/mL,"PD-L2 H15Q/N18D/T47A/Q72H/V73A/R76G/I86T/V89D IgV-Fc (Fc fusion, not shown: a dimerising Fc or GST) LFTVTVPKELYIIEQGSDVTLECNFDTGSHVNLGAITASLQKVENDASPHRERATLLEEQLPLGKASFHIPHAQVGDEGQYQCIITYGDAWDYKYLTLKVKA"
12,941 pg/mL,"PD-L2 H15Q/S39I/E44D/Q72H/V75G/R76G/Q82R/V89D IgV-Fc (Fc fusion, not shown: a dimerising Fc or GST) LFTVTVPKELYIIEQGSNVTLECNFDTGSHVNLGAITAILQKVDNDTSPHRERATLLEEQLPLGKASFHIPHVQGGDEGQYRCIIIYGDAWDYKYLTLKVKA"
13,1200 pg/mL,"PD-L2 H15Q/T47A/S67L/Q82R/V89D IgV-Fc (Fc fusion, not shown: a dimerising Fc or GST) LFTVTVPKELYIIEQGSNVTLECNFDTGSHVNLGAITASLQKVENDASPHRERATLLEEQLPLGKALFHIPQVQVRDEGQYRCIIIYGDAWDYKYLTLKVKA"
14,1640 pg/mL,"PD-L2 H15Q/T47A IgV-Fc (Fc fusion, not shown: a dimerising Fc or GST) LFTVTVPKELYIIEQGSNVTLECNFDTGSHVNLGAITASLQKVENDASPHRERATLLEEQLPLGKASFHIPQVQVRDEGQYQCIIIYGVAWDYKYLTLKVKA"
15,1190 pg/mL,"PD-L2 I13V/H15Q/R76G/D77N/Q82R/V89D IgV-Fc (Fc fusion, not shown: a dimerising Fc or GST) LFTVTVPKELYIVEQGSNVTLECNFDTGSHVNLGAITASLQKVENDTSPHRERATLLEEQLPLGKASFHIPQVQVGNEGQYRCIIIYGDAWDYKYLTLKVKA"
16,1230 pg/mL,"PD-L2 S67L/V89D IgV-Fc (Fc fusion, not shown: a dimerising Fc or GST) LFTVTVPKELYIIEHGSNVTLECNFDTGSHVNLGAITASLQKVENDTSPHRERATLLEEQLPLGKALFHIPQVQVRDEGQYQCIIIYGDAWDYKYLTLKVKA"
17,1720 pg/mL,"PD-L2 I13V/H15Q/V31A/N45S/Q82R/V89D IgV-Fc (Fc fusion, not shown: a dimerising Fc or GST) LFTVTVPKELYIVEQGSNVTLECNFDTGSHANLGAITASLQKVESDTSPHRERATLLEEQLPLGKASFHIPQVQVRDEGQYRCIIIYGDAWDYKYLTLKVKA"
18,1030 pg/mL,"PD-L2 H15Q/S67L/I86T IgV-Fc (Fc fusion, not shown: a dimerising Fc or GST) LFTVTVPKELYIIEQGSNVTLECNFDTGSHVNLGAITASLQKVENDTSPHRERATLLEEQLPLGKALFHIPQVQVRDEGQYQCIITYGVAWDYKYLTLKVKA"
19,1210 pg/mL,"PD-L2 H15Q/V31M/S67L/Q82R/V89D IgV-Fc (Fc fusion, not shown: a dimerising Fc or GST) LFTVTVPKELYIIEQGSNVTLECNFDTGSHMNLGAITASLQKVENDTSPHRERATLLEEQLPLGKALFHIPQVQVRDEGQYRCIIIYGDAWDYKYLTLKVKA"

row,IFN gamma levels pg/mL (MLR),Binder
1,836 pg/mL,"PD-L2 I13V/H15Q/T47A/E58G/S67L/Q82R/V89D IgV-Fc (Fc fusion, not shown: a dimerising Fc or GST) LFTVTVPKELYIVEQGSNVTLECNFDTGSHVNLGAITASLQKVENDASPHRERATLLGEQLPLGKALFHIPQVQVRDEGQYRCIIIYGDAWDYKYLTLKVKA"
2,1780 pg/mL,"PD-L2 G28V/Q72H/R76G/I86T IgV-Fc (Fc fusion, not shown: a dimerising Fc or GST) LFTVTVPKELYIIEHGSNVTLECNFDTVSHVNLGAITASLQKVENDTSPHRERATLLEEQLPLGKASFHIPHVQVGDEGQYQCIITYGVAWDYKYLTLKVKA"
3,1730 pg/mL,"PD-L2 H15Q/T47A/H69L/Q82R/V89D IgV-Fc (Fc fusion, not shown: a dimerising Fc or GST) LFTVTVPKELYIIEQGSNVTLECNFDTGSHVNLGAITASLQKVENDASPHRERATLLEEQLPLGKASFLIPQVQVRDEGQYRCIIIYGDAWDYKYLTLKVKA"
4,1080 pg/mL,"PD-L2 H15Q/Q82R/V89D IgV-Fc (Fc fusion, not shown: a dimerising Fc or GST) LFTVTVPKELYIIEQGSNVTLECNFDTGSHVNLGAITASLQKVENDTSPHRERATLLEEQLPLGKASFHIPQVQVRDEGQYRCIIIYGDAWDYKYLTLKVKA"
5,1600 pg/mL,"PD-L2 H15Q/T47A/Q72H/R76G/I86T IgV-Fc (Fc fusion, not shown: a dimerising Fc or GST) LFTVTVPKELYIIEQGSNVTLECNFDTGSHVNLGAITASLQKVENDASPHRERATLLEEQLPLGKASFHIPHVQVGDEGQYQCIITYGVAWDYKYLTLKVKA"
6,936 pg/mL,"PD-L2 I13V/S39I/E44D/Q82R/V89D IgV-Fc (Fc fusion, not shown: a dimerising Fc or GST) LFTVTVPKELYIVEHGSNVTLECNFDTGSHVNLGAITAILQKVDNDTSPHRERATLLEEQLPLGKASFHIPQVQVRDEGQYRCIIIYGDAWDYKYLTLKVKA"
7,1060 pg/mL,"PD-L2 H15Q/S67L/Q72H/R76G/V89D IgV-Fc (Fc fusion, not shown: a dimerising Fc or GST) LFTVTVPKELYIIEQGSNVTLECNFDTGSHVNLGAITASLQKVENDTSPHRERATLLEEQLPLGKALFHIPHVQVGDEGQYQCIIIYGDAWDYKYLTLKVKA"
8,1230 pg/mL,"PD-L2 H15Q/S39I/S67L/V89D IgV-Fc (Fc fusion, not shown: a dimerising Fc or GST) LFTVTVPKELYIIEQGSNVTLECNFDTGSHVNLGAITAILQKVENDTSPHRERATLLEEQLPLGKALFHIPQVQVRDEGQYQCIIIYGDAWDYKYLTLKVKA"
9,1750 pg/mL,"PD-L2 I13V/H15Q/T37A/E44D/S48C/S67L/Q82R/V89D IgV-Fc (Fc fusion, not shown: a dimerising Fc or GST) LFTVTVPKELYIVEQGSNVTLECNFDTGSHVNLGAIAASLQKVDNDTCPHRERATLLEEQLPLGKALFHIPQVQVRDEGQYRCIIIYGDAWDYKYLTLKVKA"
10,1220 pg/mL,"PD-L2 I13V/H15Q/Q72H/R76G/I86T IgV-Fc (Fc fusion, not shown: a dimerising Fc or GST) LFTVTVPKELYIVEQGSNVTLECNFDTGSHVNLGAITASLQKVENDTSPHRERATLLEEQLPLGKASFHIPHVQVGDEGQYQCIITYGVAWDYKYLTLKVKA"
11,1100 pg/mL,"PD-L2 H15Q/T47A/S67L/R76G/Q82R/V89D IgV-Fc (Fc fusion, not shown: a dimerising Fc or GST) LFTVTVPKELYIIEQGSNVTLECNFDTGSHVNLGAITASLQKVENDASPHRERATLLEEQLPLGKALFHIPQVQVGDEGQYRCIIIYGDAWDYKYLTLKVKA"
12,934 pg/mL,"PD-L2 H15Q/Q72H/Q74R/R76G/I86T IgV-Fc (Fc fusion, not shown: a dimerising Fc or GST) LFTVTVPKELYIIEQGSNVTLECNFDTGSHVNLGAITASLQKVENDTSPHRERATLLEEQLPLGKASFHIPHVRVGDEGQYQCIITYGVAWDYKYLTLKVKA"
13,1020 pg/mL,"PD-L2 S67L/I86T IgV-Fc (Fc fusion, not shown: a dimerising Fc or GST) LFTVTVPKELYIIEHGSNVTLECNFDTGSHVNLGAITASLQKVENDTSPHRERATLLEEQLPLGKALFHIPQVQVRDEGQYQCIITYGVAWDYKYLTLKVKA"
14,1620 pg/mL,"PD-L2 Q82R/V89D IgV-Fc (Fc fusion, not shown: a dimerising Fc or GST) LFTVTVPKELYIIEHGSNVTLECNFDTGSHVNLGAITASLQKVENDTSPHRERATLLEEQLPLGKASFHIPQVQVRDEGQYRCIIIYGDAWDYKYLTLKVKA"
15,1190 pg/mL,"PD-L2 N32D/S67L/V89D IgV-Fc (Fc fusion, not shown: a dimerising Fc or GST) LFTVTVPKELYIIEHGSNVTLECNFDTGSHVDLGAITASLQKVENDTSPHRERATLLEEQLPLGKALFHIPQVQVRDEGQYQCIIIYGDAWDYKYLTLKVKA"
16,1170 pg/mL,"PD-L2 V89D IgV-Fc (Fc fusion, not shown: a dimerising Fc or GST) LFTVTVPKELYIIEHGSNVTLECNFDTGSHVNLGAITASLQKVENDTSPHRERATLLEEQLPLGKASFHIPQVQVRDEGQYQCIIIYGDAWDYKYLTLKVKA"
17,1170 pg/mL,"PD-L2 F2L/H15Q/D46E/T47A/Q72H/R76G/Q82R/V89D IgV-Fc (Fc fusion, not shown: a dimerising Fc or GST) LLTVTVPKELYIIEQGSNVTLECNFDTGSHVNLGAITASLQKVENEASPHRERATLLEEQLPLGKASFHIPHVQVGDEGQYRCIIIYGDAWDYKYLTLKVKA"
18,1090 pg/mL,"PD-L2 I13V/H15Q/T47A/Q72H/R76G/I86T IgV-Fc (Fc fusion, not shown: a dimerising Fc or GST) LFTVTVPKELYIVEQGSNVTLECNFDTGSHVNLGAITASLQKVENDASPHRERATLLEEQLPLGKASFHIPHVQVGDEGQYQCIITYGVAWDYKYLTLKVKA"
